Assay [1] addresses T1, rat MerTK (rat, UniProt P57097 23-496, limits assumed).
T1 construct: Soluble analyte in SPR
T1 sequence (looked up): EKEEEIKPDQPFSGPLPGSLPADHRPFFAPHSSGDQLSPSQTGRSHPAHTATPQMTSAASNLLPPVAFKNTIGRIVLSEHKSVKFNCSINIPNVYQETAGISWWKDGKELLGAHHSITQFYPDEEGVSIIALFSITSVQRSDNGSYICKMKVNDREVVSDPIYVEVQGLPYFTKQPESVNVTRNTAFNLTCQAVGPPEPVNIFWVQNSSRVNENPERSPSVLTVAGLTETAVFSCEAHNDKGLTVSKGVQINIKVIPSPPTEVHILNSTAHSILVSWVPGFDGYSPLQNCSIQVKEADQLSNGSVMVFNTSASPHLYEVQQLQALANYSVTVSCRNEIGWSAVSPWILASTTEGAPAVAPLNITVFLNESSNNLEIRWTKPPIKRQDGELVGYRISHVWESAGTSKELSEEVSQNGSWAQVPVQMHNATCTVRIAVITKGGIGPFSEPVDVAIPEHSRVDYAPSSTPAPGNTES
The assay can be described thus: SPR BIAcore T200, Ab captured, 37C. As to the method: (§1) Each rabbit and humanized antibody was subjected to a binding assay to determine its affinity to MerTK derived from various species.
(§2) All binding affinity determinations were obtained using Surface Plasmon Resonance (SPR) measurements from a BIAcore™-T200 instrument. Briefly, each rabbit or humanized antibody was captured to achieve approximately 100 RU (Response Units). Then, 3-fold serial dilutions of MerTK from various species (0.4 nM to 100 nM) diluted in HBS-EP buffer (0.01M HEPES pH 7.4, 0.15M NaCl, 3 mM EDTA and 0.05% v/v surfactant P20) was injected into the BIAcore™-T200 instrument at 25° C. or 37° C. with a flow rate of 30 μl/min. Association rates (kₒₙ) and dissociation rates (koff) were calculated using a simple one-to-one Langmuir binding model (BIAcore T200 evaluation software version 2.0). The equilibrium dissociation constant (KD) was calculated as the ratio koff/kₒₙ.

Assay [2] addresses T2, mouse MerTK (mouse, UniProt Q60805 23-496).
T2 construct: also called MuMER
T2 sequence (looked up): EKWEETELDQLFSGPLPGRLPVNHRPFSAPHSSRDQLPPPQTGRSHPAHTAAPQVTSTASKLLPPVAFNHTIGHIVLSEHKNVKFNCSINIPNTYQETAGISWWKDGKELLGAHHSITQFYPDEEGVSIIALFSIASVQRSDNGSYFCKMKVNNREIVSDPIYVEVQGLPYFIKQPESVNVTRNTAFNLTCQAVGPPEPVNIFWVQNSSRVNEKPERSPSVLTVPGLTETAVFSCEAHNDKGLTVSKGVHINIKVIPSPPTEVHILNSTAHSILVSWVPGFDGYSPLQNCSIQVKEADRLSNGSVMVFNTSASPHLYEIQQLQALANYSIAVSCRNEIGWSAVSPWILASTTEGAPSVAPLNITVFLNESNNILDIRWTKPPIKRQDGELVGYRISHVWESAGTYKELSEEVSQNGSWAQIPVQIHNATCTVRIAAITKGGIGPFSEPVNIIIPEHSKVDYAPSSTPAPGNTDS
Description: SPR BIAcore T200, Ab captured, 37C. The protocol: as §1, §2
(In general: Surface plasmon resonance follows binding to a sensor surface in real time, without labels.)

In assay [3] the target is T3, human MerTK (human, UniProt Q12866 26-499).
T3 construct: also called HuMER
T3 sequence: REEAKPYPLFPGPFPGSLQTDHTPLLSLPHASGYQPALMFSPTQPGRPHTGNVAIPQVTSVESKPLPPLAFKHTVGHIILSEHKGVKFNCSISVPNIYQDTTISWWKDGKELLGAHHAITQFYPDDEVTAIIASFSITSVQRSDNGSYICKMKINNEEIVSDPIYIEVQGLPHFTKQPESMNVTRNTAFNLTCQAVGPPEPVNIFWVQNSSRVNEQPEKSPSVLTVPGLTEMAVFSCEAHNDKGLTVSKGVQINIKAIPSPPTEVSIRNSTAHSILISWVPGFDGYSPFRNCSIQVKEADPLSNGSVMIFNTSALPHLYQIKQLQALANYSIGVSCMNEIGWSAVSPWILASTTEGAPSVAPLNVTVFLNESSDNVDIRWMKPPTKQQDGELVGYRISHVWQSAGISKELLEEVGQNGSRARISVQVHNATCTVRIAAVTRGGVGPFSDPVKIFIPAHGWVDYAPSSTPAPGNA
Description: SPR BIAcore T200, Ab captured, 37C. The protocol:
as §1, §2

The target of assay [4] is T4, cynomolgus monkey MerTK (cynomolgus monkey, UniProt A0A2K5V1H9 32-505).
T4 construct: Soluble analyte in SPR; also called Cyno MerTK
T4 sequence: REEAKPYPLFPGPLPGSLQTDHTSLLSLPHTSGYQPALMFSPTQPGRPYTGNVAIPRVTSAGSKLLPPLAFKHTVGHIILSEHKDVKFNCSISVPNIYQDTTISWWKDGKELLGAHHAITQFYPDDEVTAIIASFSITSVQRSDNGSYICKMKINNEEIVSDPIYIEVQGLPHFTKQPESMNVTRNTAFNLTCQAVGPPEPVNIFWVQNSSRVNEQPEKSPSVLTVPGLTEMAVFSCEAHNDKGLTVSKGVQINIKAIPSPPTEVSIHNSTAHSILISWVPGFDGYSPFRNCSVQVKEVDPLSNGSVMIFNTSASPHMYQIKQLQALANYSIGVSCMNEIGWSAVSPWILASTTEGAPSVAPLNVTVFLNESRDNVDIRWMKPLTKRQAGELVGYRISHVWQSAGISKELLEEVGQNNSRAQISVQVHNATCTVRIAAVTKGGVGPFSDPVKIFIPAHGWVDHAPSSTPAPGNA
Description: SPR BIAcore T200, Ab captured, 37C. As to the method: as §1, §2

The target in assay [5] is T1, rat MerTK. The assay can be described thus: SPR BIAcore T200, Ab captured, 37C. The protocol: as §2
This is another data set of the same source.

Assay [6] addresses T2, mouse MerTK. The assay can be described thus: SPR BIAcore T200, Ab captured, 37C. As to the method:
as §2
This is another data set of the same source.

The target in assay [7] is T3, human MerTK. The assay can be described thus: SPR BIAcore T200, Ab captured, 37C. As to the method: as §2
The source holds these as a separate data set.

Assay [8] has as its target T4, cynomolgus monkey MerTK. The assay can be described thus: SPR BIAcore T200, Ab captured, 37C. As to the method: as §2
The source holds these as a separate data set.

In assay [9] the target is T3, human MerTK. Description: SPR BIAcore T200, Ab captured, 37C. The protocol:
Each humanized mutation variant was subject to BIAcore analysis to determine the important rabbit residues for binding and stability. Binding affinity determinations were obtained using Surface Plasmon Resonance (SRP) measurements from a BIAcore™-T200 instrument. Briefly, each humanized mutation variant antibody was captured to achieve approximately 100 RU (Response Units). Then, 3-fold serial dilutions of human MerTK (0.4 nM to 100 nM) diluted in HBS-EP buffer (0.01M HEPES pH 7.4, 0.15M NaCl, 3 mM EDTA and 0.05% v/v surfactant P20) was injected into the BIAcore™-T200 instrument at 37° C. with a flow rate of 30 μl/min. Association rates (kₒₙ) and dissociation rates (koff) were calculated using a simple one-to-one Langmuir binding model (BIAcore T200 evaluation software version 2.0). The equilibrium dissociation constant (KD) was calculated as the ratio koff/kₒₙ.
The source holds these as a separate data set.

Assay [10] addresses T5, human MerTK on human macrophages (human, UniProt Q12866 21-999).
T5 sequence: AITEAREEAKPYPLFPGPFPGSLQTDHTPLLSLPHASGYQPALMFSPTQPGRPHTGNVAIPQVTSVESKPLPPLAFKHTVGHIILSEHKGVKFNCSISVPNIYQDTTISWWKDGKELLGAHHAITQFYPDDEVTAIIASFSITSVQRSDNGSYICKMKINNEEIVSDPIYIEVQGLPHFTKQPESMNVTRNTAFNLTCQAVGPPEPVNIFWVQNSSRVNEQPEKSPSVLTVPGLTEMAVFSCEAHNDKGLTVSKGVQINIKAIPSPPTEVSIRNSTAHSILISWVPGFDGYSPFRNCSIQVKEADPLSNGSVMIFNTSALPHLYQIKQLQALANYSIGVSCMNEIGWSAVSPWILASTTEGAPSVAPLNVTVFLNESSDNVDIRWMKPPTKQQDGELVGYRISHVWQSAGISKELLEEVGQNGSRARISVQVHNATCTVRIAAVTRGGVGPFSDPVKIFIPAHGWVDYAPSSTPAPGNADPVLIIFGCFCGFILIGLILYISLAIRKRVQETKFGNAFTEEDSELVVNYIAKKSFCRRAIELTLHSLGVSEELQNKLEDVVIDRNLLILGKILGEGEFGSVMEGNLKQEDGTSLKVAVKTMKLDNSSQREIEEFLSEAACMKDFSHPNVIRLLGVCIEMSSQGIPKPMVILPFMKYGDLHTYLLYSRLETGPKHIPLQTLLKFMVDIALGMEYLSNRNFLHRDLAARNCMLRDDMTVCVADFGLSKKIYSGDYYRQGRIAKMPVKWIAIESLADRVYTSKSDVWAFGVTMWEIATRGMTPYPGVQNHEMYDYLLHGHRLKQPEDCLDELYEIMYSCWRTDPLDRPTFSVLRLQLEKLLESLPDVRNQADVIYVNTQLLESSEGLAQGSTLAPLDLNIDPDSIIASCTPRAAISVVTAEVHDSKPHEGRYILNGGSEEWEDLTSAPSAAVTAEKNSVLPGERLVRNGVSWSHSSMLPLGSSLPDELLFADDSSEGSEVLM
Description: cell-based or functional assay.

Read-outs that look alike come from different tables or passages of the source.

B1: h10F7.v1 (antibody, V domains shown)
VH: EQQLVESGGGLVQPGGSLRLSCAVSGFSLSGYAMSWVRQAPGKGLEYIGVISSSGSSYYPSWAKGRFTISKDSSKNTVYLQMGSLRAEDMAVYFCARVQFYVGYAVYGYGIIDRLDLWGQGTLVTVSS
VL: DAVLTQSPDSLAVSLGERATINCQSSKSVYNNNWLSWYQQKPGQPPKLLIYRASTLESGVPDRFSGSGSGTDFTLTISSLQAEDVAVYFCAGGYSSSSSANAFGGGTKVEIK
notes: also called h10F7.V1 (Parent); 10F7 Humanized mAb V1
In general, Kd refers to a measure of binding affinity in units of concentration. B1: the Kd with rat MerTK [1] came to 4.1 nM; in the assay with mouse MerTK [2], 1.5 nM; with human MerTK [3], 6.7 nM; with cynomolgus monkey MerTK [4], 3 nM; with rat MerTK [5] it was 3.6 nM; in the assay with mouse MerTK [6], 1.5 nM. For the same molecule, the Kd in the assay with human MerTK [7] turned out to be 7.1 nM; with cynomolgus monkey MerTK [8], 3.1 nM; with human MerTK [9], 7.3 nM.

B2: h9E3.FN.v1 (antibody, V domains shown)
VH: EQQLVESGGGLIQPGGSLRLSCAVSGFSLSSNAMSWVRQAPGKGLEWIGIISSSGSTYSASWAKGRFTISKDSSKNTMYLQMNSLRAEDTAVYFCARVGFFVGYGAYDYGIIHRLDLWGQGTLVTVSS
VL: DAQLTQSPSTLSASVGDRVTITCQSSKSIYNNNWLSWYQQKPGKPPKLLIYDASDLASGVPSRFSGSGSGTEFTLTISSLQPDDFATYYCAGGYSGDSDYAFGGGTKVEIK
notes: also called h9E3.FN.V1 (Parent); 9E3.FN Humanized mAb V1
Take B2: the Kd was 3.8 nM with rat MerTK [1]; 1.4 nM with mouse MerTK [2]; 11.2 nM with human MerTK [3]; 4.8 nM with cynomolgus monkey MerTK [4]; 3.7 nM with rat MerTK [5]; 1.5 nM in the assay with mouse MerTK [6]. Moreover, the Kd in the assay with human MerTK [7] is 10.6 nM; with cynomolgus monkey MerTK [8], 4.5 nM; with human MerTK [9], 12.2 nM.

B3: h9E3.FN.v16 (antibody, V domains shown)
VH: EVQLVESGGGLIQPGGSLRLSCAASGFSLSSNAMSWVRQAPGKGLEWVSIISSSGSTYSASWAKGRFTISKDNSKNTLYLQMNSLRAEDTAVYYCARVGFFVGYGAYDYGIIHRLDLWGQGTLVTVSS
VL: DIQLTQSPSTLSASVGDRVTITCQSSKSIYNNNWLSWYQQKPGKPPKLLIYDASDLASGVPSRFSGSGSGTEFTLTISSLQPDDFATYYCAGGYSGDSDYAFGGGTKVEIK
notes: Humanized, human IgG1; also called 9E3.FN Humanized polished mAb
Consider B3, for which binding in the assay with rat MerTK [1] was put at a Kd of 3 nM. The Kd in the assay with mouse MerTK [2] was determined as 1.1 nM. The molecule further had a Kd with human MerTK [3] of 5.8 nM. The same molecule displayed a Kd with cynomolgus monkey MerTK [4] of 2.5 nM. In [10], the “IC50 (nM), efferocytosis by human macrophages, Average (3 Donors)” value is 1.02 nM; the “IC50 (nM), efferocytosis by human macrophages, Donor A” value is 0.59 nM; the “IC50 (nM), efferocytosis by human macrophages, Donor C” value is 1.5 nM; the “Max Inhibition (%), efferocytosis by human macrophages, Average (3 Donors)” value amounted to 57%. In assay [10], the “Max Inhibition (%), efferocytosis by human macrophages, Donor A” value came out at 58% and the “Max Inhibition (%), efferocytosis by human macrophages, Donor C” value was 55%.
